Measured values reported in article PMC12102759.

B1: SH3BP2 peptide 408-423 (SH3 domain-binding protein 2), 16-mer library wild type / TNKS ANK (TNKS 12 ANK repeats, residues 174-649) (parent)
chain 1: PQLPHLQRSPPDGQSF
chain 2: TGVPAVSGALRELLEACRNGDVSRVKRLVDAANVNAKDMAGRKSSPLHFAAGFGRKDVVEHLLQMGANVHARDDGGLIPLHNACSFGHAEVVSLLLCQGADPNARDNWNYTPLHEAAIKGKIDVCIVLLQHGADPNIRNTDGKSALDLADPSAKAVLTGEYKKDELLEAARSGNEEKLMALLTPLNVNCHASDGRKSTPLHLAAGYNRVRIVQLLLQHGADVHAKDKGGLVPLHNACSYGHYEVTELLLKHGACVNAMDLWQFTPLHEAASKNRVEVCSLLLSHGADPTLVNCHGKSAVDMAPTPELRERLTYEFKGHSLLQAAREADLAKVKKTLALEIINFKQPQSHETALHCAVASLHPKRKQVTELLLRKGANVNEKNKDFMTPLHVAAERAHNDVMEVLHKHGAKMNALDTLGQTALHRAALAGHLQTCRLLLSYGSDPSIISLQGFTAAQMGNEAVQQILSESTPIRTSD
B2: AMOTL2 peptide 66-81 (Angiomotin-like protein 2), 16-mer library wild type / TNKS ANK (TNKS 12 ANK repeats, residues 174-649) (parent)
chain 1: LQQATRQEPQGQEHQG
chain 2: B1 chain 2
B3: PEX5 peptide 108-123 (Peroxisomal targeting signal 1 receptor), 16-mer library wild type / PEX14 Pex14 (PEX14 PEX14, residues 16-84) (parent)
chain 1: GVADLALSENWAQEFL
chain 2: TPGSENVLPREPLIATAVKFLQNSRVRQSPLATRRAFLKKKGLTDEEIDMAFQQSGTAADEPSSLGPAT
B4: KIAA1671 peptide 600-615 (Uncharacterized protein KIAA1671), 16-mer library wild type / MDM2 SWIB (MDM2 SWIB/MDM2 domain, residues 17-125) (parent)
chain 1: TPEDDRSFQTVWATVF
chain 2: SQIPASEQETLVRPKPLLLKLLKSVGAQKDTYTMKEVLFYLGQYIMTKRLYDEKQQHIVYCSNDLLGDLFGVPSFSVKEHRKIYTMIYRNLVVVNQQESSDSGTSVSEN
B5: PEX5 peptide 240-255 (Peroxisomal targeting signal 1 receptor), 16-mer library wild type / PEX14 Pex14 (PEX14 PEX14, residues 16-84) (parent)
chain 1: AEQWAAEFIQQQGTSD
chain 2: B3 chain 2

Variants of: B1
Test: proteomic peptide phage display deep mutational scan (ProP-PD DMS): M13 P8 16-mer library selected against immobilised GST-tagged bait for four days (rounds), NGS of the eluted pools per day and pseudo-replica
Conditions: with TNKS ANK (TNKS 12 ANK repeats, residues 174-649); bait immobilised on MaxiSorp plates (10 µg), library pre-cleared on GST, 2 h binding at 4 °C, five washes; one round per day, days 1-4; value from days 2 and 3; keep out of graded; scale: average fractional NGS count over selection days 2 and 3

Screen value: each site, then its substitutions
chain 1 P10: R 5.9e-05; M 0.000103
chain 1 P11: M 0; E 0; Q 0; L 0; H 0; T 7.13e-05; F 3.04e-05; I 0; S 2.19e-05
chain 1 Q14: D 6.15e-05; P 3.92e-05; W 0.000114
chain 1 R8: H 0; S 8.91e-05; Y 0; W 0; F 0; A 0
chain 1 F16: K 4.17e-05; S 9.92e-05
chain 1 L3: W 5.02e-05; D 9.07e-05; G 6.04e-05
chain 1 G13: A 0; Q 0; W 0
chain 1 S15: G 9.21e-05
chain 1 H5: N 3.1e-05; E 9.9e-05; W 7.66e-05; L 0.000101; A 0.000105; D 5.12e-05; M 6.6e-05
chain 1 Q7: N 0.000104; R 0.000135; P 3e-05
chain 1 D12: P 4.27e-05; H 5.06e-05; Y 3.32e-05; T 6.11e-05; F 0
chain 1 L6: K 8.36e-05; I 6.25e-05
chain 1 S9: R 9.97e-05; G 7.17e-05
chain 1 P4: K 0.000103; F 5.23e-05; R 3.21e-05
chain 1 Q2: W 3.04e-05

Variants of: B2
Test: as above
Conditions: with TNKS ANK (TNKS 12 ANK repeats, residues 174-649); bait immobilised on MaxiSorp plates (10 µg), library pre-cleared on GST, 2 h binding at 4 °C, five washes; one round per day, days 1-4; value from days 2 and 3; keep out of graded; scale: average fractional NGS count over selection days 2 and 3

Screen value of substitutions, site by site:
chain 1 Q2: R 0; F 3.49e-05
chain 1 Q3: M 3.03e-05; R 0; K 2.25e-05; I 0.000108; E 9.57e-05
chain 1 Q15: K 5.01e-05
chain 1 R6: S 6.11e-05; E 0; K 0; L 0
chain 1 H14: T 3.21e-05; Y 8.4e-05; P 6.39e-05; D 0
chain 1 Q7: S 0.000105; E 2.83e-05; R 0; I 0.0001; D 2.19e-05
chain 1 T5: A 2.97e-05; P 5.25e-05; E 5.19e-05; K 6.67e-05; R 0
chain 1 L1: R 2.19e-05
chain 1 E13: P 3.32e-05; F 1.87e-05; T 1.94e-05; R 0; G 5.19e-05; D 6.42e-05; K 0; W 1.87e-05
chain 1 G11: N 5.06e-05; L 0
chain 1 P9: G 0; S 0; V 9.22e-05; I 6.68e-05; Y 0; L 0
chain 1 A4: E 4.24e-05
chain 1 Q12: G 3.04e-05; T 9.71e-05; N 2.19e-05; S 5.26e-05; E 4.24e-05; V 6.42e-05; K 5.3e-05; D 0
chain 1 Q10: P 6.1e-05; R 3.15e-05; V 6.99e-05; F 0; A 2.19e-05; T 3.04e-05; K 0; M 4.87e-05
chain 1 E8: N 0.000167; I 6.96e-05

Variants of: B3
Test: as above
Conditions: with PEX14 Pex14 (PEX14 PEX14, residues 16-84); bait immobilised on MaxiSorp plates (10 µg), library pre-cleared on GST, 2 h binding at 4 °C, five washes; one round per day, days 1-4; value from days 2 and 3; scale: average fractional NGS count over selection days 2 and 3

Screen value of substitutions, site by site:
chain 1 A6: F 0.000385; H 0.000488; V 0; Q 0.000383; E 0; Y 0; L 0.000211
chain 1 A3: H 0.000109; Q 0.000248; R 0; D 0; E 7.71e-05; W 7.47e-05; S 0.000118; K 0.000328; F 0; P 0.000212
chain 1 D4: E 0.000293; A 0.000207; L 0.00112; I 9.56e-05; K 0
chain 1 A12: S 0.000254; P 0; W 6.63e-05; T 0.000373; V 0; F 0.000389; I 0.000211; D 0; G 0.000152; H 0.000439; R 0

Variants of: B4
Test: as above
Conditions: with MDM2 SWIB (MDM2 SWIB/MDM2 domain, residues 17-125); bait immobilised on MaxiSorp plates (10 µg), library pre-cleared on GST, 2 h binding at 4 °C, five washes; one round per day, days 1-4; value from days 2 and 3; keep out of graded; scale: average fractional NGS count over selection days 2 and 3

Screen value, by site and new letter:
chain 1 T14: Y 0.000108; W 0.000103; V 1.9e-05; H 4.28e-05; N 0.000664; Q 3.86e-05; M 0.00063; R 0.00282; G 5.64e-05; E 0.000268; A 2.89e-05; S 0.000516; I 3.81e-05; D 9.35e-05
chain 1 D4: A 0.00011; P 0.000107; V 0.000129; T 0.00033; N 1.9e-05; Y 2.12e-05; S 0.0004; M 4.28e-05; I 8.68e-05; G 0.000914; Q 0.000505
chain 1 P2: T 0.000455; E 6.83e-05; M 0.000288; G 0.000243; S 7.3e-05; Y 0.000913; L 6.52e-05; F 5.33e-05; R 3.9e-05; Q 9.58e-05; V 3.63e-05; I 0.000159; H 4.89e-05; A 8.35e-05; D 6.18e-05
chain 1 R6: M 0.000232; Y 0.000693; H 0.000397; S 0.00021; K 0.000243; I 0.000114; G 9.01e-05; T 4.17e-05; V 0.000461; L 0.000264; W 0.0002; A 0.000223; F 0.000483; E 6.31e-05; Q 0.000155
chain 1 V11: F 0.000216; N 0; I 0.00157; M 0.000226; E 0; T 0; L 0.000339; Q 0.00061; H 0.0015; A 0; Y 0.000214; W 0.00167
chain 1 T10: H 0.000113; D 1.9e-05; Y 0.000166; S 0.000471; M 0.00046; W 0.000295; A 0.000165; L 6.08e-05; P 1.43e-05; F 0.000114; Q 0.000116; I 0.000209
chain 1 S7: W 0.000517; T 6.52e-05; Q 0.000194; L 0.000105; P 2.82e-05; N 5.84e-05; K 6.18e-05; F 3.36e-05
chain 1 A13: M 0.000146; G 0; I 0.000104; H 0.000327; N 0.000173; L 9.44e-05; R 5.94e-05; T 0.00011; D 1.83e-05; Q 5.55e-05; W 0.000391; V 4.31e-05; P 0; S 0.000227
chain 1 D5: L 0.000477; S 0.00089; Q 2.45e-05; G 0.00021; K 1.66e-05; V 0.000143; I 1.66e-05; H 6.55e-05; A 0.000323; M 0.000189; Y 8.89e-05; T 0.000201; F 3.53e-05; P 0.000202; W 0.000664
chain 1 V15: M 8.76e-05; P 0; F 0.000104; A 0.000191; S 2.82e-05; G 0; W 0.000109; N 0
chain 1 Q9: E 8.49e-05; P 7.92e-05; D 0; A 0.000111; T 4.79e-05; S 8.1e-05; M 0.000681; G 0.000111; W 0.000575; Y 0.000186; L 0.00104; F 5.33e-05; I 0.000133; N 0
chain 1 W12: T 9.54e-05; D 0; K 9.9e-05; R 0; N 0
chain 1 F16: G 0; Y 0; E 0; D 0; I 5.77e-05; M 4.28e-05; W 1.6e-05; S 0.000197; A 0
chain 1 F8: A 0.00012; N 0.000113; R 0; W 0.000346; P 7.93e-05; K 0; M 0.000128; Y 1.9e-05
chain 1 E3: K 0.000111; S 0.00105; H 0.000765; G 0.000104; P 5.24e-05; Q 4.56e-05; L 0.000185; W 0.000218; Y 0.00068; A 0.00018; R 0.000648; F 1.83e-05; V 0.00284; T 0.000371; I 0.000166; N 4.32e-05

Variants of: B5
Test: as above
Conditions: with PEX14 Pex14 (PEX14 PEX14, residues 16-84); bait immobilised on MaxiSorp plates (10 µg), library pre-cleared on GST, 2 h binding at 4 °C, five washes; one round per day, days 1-4; value from days 2 and 3; keep out of graded; scale: average fractional NGS count over selection days 2 and 3

Screen value: each site, then its substitutions
chain 1 W4: D 0.000272; R 0.000107; P 0; H 5.68e-05; N 0; Q 0; L 9.31e-05; G 6.63e-05
chain 1 S15: N 0; M 0.000166
chain 1 T14: Y 0.000275
